# Measured values published in patent US20160051695A1.
# Legend:
# [1] = molecular target: Jurkat cells (human T leukemia cells; do not express human HER2); assay: flow cytometry on HER2-negative Jurkat cells, background without primary antibody
# [2] = molecular target: human HER2 (ErbB2), human epidermal growth factor receptor 2 protein (human) (UniProt P04626); assay: flow cytometry on JIMT-1 cells, background without primary antibody
# [3] = molecular target: human HER2 (ErbB2), human epidermal growth factor receptor 2 protein (human) (UniProt P04626); assay: flow cytometry on SKOV-3 cells, background without primary antibody
substance,measurement,setting,value
"goat F(ab')2-anti-human IgG (H+L)-RPE (Southern Biotech, Cat. No. 2043-09)",MFI,[1],9
same,MFI,[2],3.29
same,MFI,[3],8
